This is an account of results in patent US20230287489.

The target in this series is T1, human placental RNase inhibitor (NEB, Cat #M0307S), P13489.
T1 chain: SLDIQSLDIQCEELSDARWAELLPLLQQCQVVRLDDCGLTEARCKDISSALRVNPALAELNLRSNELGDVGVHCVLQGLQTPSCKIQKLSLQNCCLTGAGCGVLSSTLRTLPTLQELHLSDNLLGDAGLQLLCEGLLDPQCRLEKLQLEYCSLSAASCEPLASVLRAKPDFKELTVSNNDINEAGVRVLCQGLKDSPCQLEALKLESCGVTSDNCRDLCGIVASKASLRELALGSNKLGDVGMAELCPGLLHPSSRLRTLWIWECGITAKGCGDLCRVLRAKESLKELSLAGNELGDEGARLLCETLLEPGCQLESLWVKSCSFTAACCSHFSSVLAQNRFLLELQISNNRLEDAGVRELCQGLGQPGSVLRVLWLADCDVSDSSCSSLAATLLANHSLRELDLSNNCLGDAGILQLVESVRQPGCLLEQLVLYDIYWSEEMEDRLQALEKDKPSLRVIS

B1: recombinant wild-type human RNase4 (hRNase 4), periplasmically expressed as an MBP fusion protein (protein)
chain: QDGMYQRFLRQHVHPEETGGSDRYCNLMMQRRKMTLYHCKRFNTFIHEDIWNIRSICSTTNIQCKNGKMNCHEGVVKVTDCRDTGSSRAPNCRYRAIASTRRVVIACEGNPQVPVHFDG
For the protein B1, the “cleavage of a target RNA oligonucleotide (SEQ ID NO: 23) by hRNase 4, LC-MS/MS” value is “cleavage of the target oligonucleotide was inhibited following preincubation of hRNase 4 with human placental RNase inhibitor”.
